Assay results taken from paper PMC11109247.

Tests used:
[1] = molecular target: T1, sF ectodomain (Nipah henipavirus), Q9IH63; test: MST; conditions: modification not given
T1 chain: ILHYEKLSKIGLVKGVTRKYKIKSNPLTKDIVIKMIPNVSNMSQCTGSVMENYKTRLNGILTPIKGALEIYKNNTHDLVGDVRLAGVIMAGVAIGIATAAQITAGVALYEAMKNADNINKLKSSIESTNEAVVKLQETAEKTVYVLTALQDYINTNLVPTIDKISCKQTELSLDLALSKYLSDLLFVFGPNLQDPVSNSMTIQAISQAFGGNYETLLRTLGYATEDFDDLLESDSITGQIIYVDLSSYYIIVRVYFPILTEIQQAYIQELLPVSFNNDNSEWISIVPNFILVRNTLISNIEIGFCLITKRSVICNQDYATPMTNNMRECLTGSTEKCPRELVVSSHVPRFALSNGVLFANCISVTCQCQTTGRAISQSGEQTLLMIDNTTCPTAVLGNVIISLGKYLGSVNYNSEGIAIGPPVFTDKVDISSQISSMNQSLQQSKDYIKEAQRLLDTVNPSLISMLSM

[2] = molecular target: T1, sF ectodomain (Nipah henipavirus), …; test: BLI; conditions: modification not given

HECNISCPNPLPFREYRPQTEGV [P-59 peptide peptide P-59, Q9IH62]
Kd [1]: 5000 nM | Kd [2]: 190 nM
